Reference: the supplement of paper PMC7877785
± gives the uncertainty stated by the source.

Experiment: self-splicing fitness, log relative to wild type (ln ratio); higher = more splicing; Tetrahymena group I intron in knt gene, E. coli kanamycin selection, DiMSum; sequences stand for … in CUCUCU…GGAGGGAAAAGUUAUCAGGCAUGCACCUGGUAGCUAGUCUUUAAACCAAUAGAUUGCAUCGGUUUAAAAGGCAAGACCGUCAAAUUGCGGGAAAGGGGUCAACAGCCGUUCAGUACCAAGUCUCAGGGGAAACUUUGAGAUGGCCUUGCAAAGGGUAUGGUAAUAAGCUGACGGACAUGGUCCUAACCACGCAGCCAAGUCCUAAGUCAACAGAUCUUCUGUUGAUAUGGAUGCAGUUCACAGACUAAAUGUCGGUCGGGGAAGAUGUAUUCUUCUCAUAAGAUAUAGUCGGACCUCUCCUUAAUGGGAGCUAGCGGAUGAAGUGAUGCAACACUGGAGCCGCUGGGAACUAAUUUGUAUGCGAAAGUAUAUUGAUUAGUUUUGGAGUACUCGUGGUCG
In short: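 Colonies from six replicate transformations of E. coli BL21(DE3) were pooled and amplicon-sequenced on an Illumina HiSeq 2500. The library placed an intron with all eight P1ex-region nucleotides randomised inside the knt kanamycin-resistance gene on pET-22b(+), and cells grew overnight at 37°C or 30°C on LB agar with or without 25 μg/mL kanamycin (plus 100 μg/mL carbenicillin, 50 μM IPTG, 0.2% rhamnose). Fitness is the DiMSum error-weighted combination of wild-type-normalised replicate fold changes, kanamycin versus none.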

Row | Sequence | self-splicing fitness (ln) (37 °C) | self-splicing fitness (ln) (30 °C)
1 | UUUGAGCAAUAUUACGCCUU | -2.2 ± 0.45 | 
2 | GGGCAGCAAUAUUACGUCAU | 0.195 ± 0.076 | -0.717 ± 0.066
3 | UACUAGCAAUAUUACGGAAA | -1.27 ± 0.18 | -2.64 ± 0.22
4 | GUCCAGCAAUAUUACGUCCG | -0.283 ± 0.22 | -4.42 ± 0.29
5 | UUGUAGCAAUAUUACGGCAG | 0.374 ± 0.18 | -0.0514 ± 0.14
6 | GCGCAGCAAUAUUACGCGUC | -2.41 ± 0.2 | -3.41 ± 0.16
7 | UCCCAGCAAUAUUACGCUAU | -1.31 ± 0.11 | -4.27 ± 0.21
8 | AGGGAGCAAUAUUACGGAGA | -2.69 ± 0.32 | -2.65 ± 0.4
9 | GAAGAGCAAUAUUACGCUUG | -1.3 ± 0.14 | -2.25 ± 0.13
10 | ACCGAGCAAUAUUACGUUAA | -2.7 ± 0.14 | -3 ± 0.13
11 | CCAGAGCAAUAUUACGACAU | -3.03 ± 0.043 | -3.776 ± 0.029
12 | CCCAAGCAAUAUUACGGAUG | -2.49 ± 0.11 | -3.07 ± 0.1
13 | GUCAAGCAAUAUUACGGCGU | -0.0377 ± 0.1 | -1.04 ± 0.083
14 | GCUAAGCAAUAUUACGGUCU | -1.06 ± 0.085 | -0.772 ± 0.083
15 | GCAAAGCAAUAUUACGCCAG | -3.19 ± 0.29 | -2.38 ± 0.15
16 | GAGCAGCAAUAUUACGCUCU |  | -3.46 ± 0.28
17 | GGGAAGCAAUAUUACGUUAA | -1.73 ± 0.19 | -2.82 ± 0.18

Row | Sequence | self-splicing fitness (ln) (37 °C) | self-splicing fitness (ln) (30 °C)
18 | CCCAAGCAAUAUUACGUGUA | -2.3 ± 0.11 | -2.85 ± 0.096
19 | UCGCAGCAAUAUUACGCGUC | -1.8 ± 0.14 | -3.42 ± 0.16
20 | AGACAGCAAUAUUACGACCG | -0.429 ± 0.14 | -1.4 ± 0.12
21 | AAUUAGCAAUAUUACGCGAA | -1.89 ± 0.25 | -1.34 ± 0.15
22 | UUCGAGCAAUAUUACGUUAU | -2.82 ± 0.38 | -2.58 ± 0.2
23 | GGAAAGCAAUAUUACGAAGA | -1.57 ± 0.21 | -2.45 ± 0.3
24 | CAAAAGCAAUAUUACGAGCC |  | -3.49 ± 0.3
25 | UAUCAGCAAUAUUACGCACG | 0.232 ± 0.14 | -0.349 ± 0.11
26 | UCACAGCAAUAUUACGGCCA | -1.19 ± 0.21 | -1.78 ± 0.28
27 | CUCUAGCAAUAUUACGAAGG | -1.16 ± 0.32 | -2.01 ± 0.38
28 | UUUAAGCAAUAUUACGCUGU | -1.79 ± 0.18 | -3.57 ± 0.21
29 | CCAGAGCAAUAUUACGGGAC |  | -2.81 ± 0.33
30 | CGUUAGCAAUAUUACGGGAA | -2.36 ± 0.28 | -2.14 ± 0.17
31 | GUGUAGCAAUAUUACGGAUA | -0.0303 ± 0.17 | -2.46 ± 0.23
32 | CCCUAGCAAUAUUACGUAUA | -2.89 ± 0.4 | -3.24 ± 0.25
33 | GUACAGCAAUAUUACGUUCG | -0.316 ± 0.079 | -1.45 ± 0.061
34 | GUGAAGCAAUAUUACGUGAA | -0.504 ± 0.12 | -2.63 ± 0.11
